Laboratory results from patent publication US20200255501A1 (VIB VZW, published 2020).
Residue numbers refer to the chain shown, from its start.

T1: B. anthracis Surface array protein (Sap), native S-Layer on B. anthracis 34F2 cells (Bacillus anthracis, UniProt P49051 30-814)
T1 sequence: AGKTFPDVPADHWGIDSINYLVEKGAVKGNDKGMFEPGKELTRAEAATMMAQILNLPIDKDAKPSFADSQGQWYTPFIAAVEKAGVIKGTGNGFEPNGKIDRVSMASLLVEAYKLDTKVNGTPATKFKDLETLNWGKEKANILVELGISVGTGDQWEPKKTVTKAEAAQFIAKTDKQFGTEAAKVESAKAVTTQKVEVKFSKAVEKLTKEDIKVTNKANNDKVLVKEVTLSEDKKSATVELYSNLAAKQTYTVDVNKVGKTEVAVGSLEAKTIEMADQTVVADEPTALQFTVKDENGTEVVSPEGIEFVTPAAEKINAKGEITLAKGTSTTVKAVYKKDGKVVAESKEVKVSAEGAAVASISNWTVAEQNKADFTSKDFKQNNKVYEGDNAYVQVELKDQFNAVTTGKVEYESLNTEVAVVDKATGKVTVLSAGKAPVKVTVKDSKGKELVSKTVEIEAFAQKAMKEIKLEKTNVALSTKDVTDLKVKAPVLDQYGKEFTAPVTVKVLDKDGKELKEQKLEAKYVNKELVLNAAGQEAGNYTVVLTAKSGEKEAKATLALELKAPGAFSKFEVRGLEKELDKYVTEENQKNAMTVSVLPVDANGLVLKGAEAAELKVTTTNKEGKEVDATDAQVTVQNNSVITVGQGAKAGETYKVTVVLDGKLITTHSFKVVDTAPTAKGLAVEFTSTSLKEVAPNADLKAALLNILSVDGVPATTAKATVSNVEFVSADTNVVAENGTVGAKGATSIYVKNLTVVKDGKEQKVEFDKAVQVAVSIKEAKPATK

B1: anti-Sap Nanobody688 (VHH)
VHH: QVQLVESGGGLVRAGGSLRLSCAASGSIFRINDMGWYRQAPGKQRELVAAITSGGSTNYADSVKGRFTISRDNAKNTVYLQMNSLKPEDTAVYYCNADFSTVRERRYDYWGQGTQVTVSS
B2: anti-Sap Nanobody703 (VHH)
VHH: QVQLVESGGGLVQPGGSLRLSCAASGFTFSSYAMSWVRQAPGKGLEWVSDINSGGGSTYYADSVKGRFTISRDNAKNTLYLQMNSLKPEDTAVYYCATGGKYGSTWYGQIEYDYWGQGTQVTVSS
B3: anti-Sap Nanobody692 (VHH)
VHH: QVQLVESGGGLVQAGGSLRLSCAASGSIFRINDMGWYRQAPGKQRELVAVITSGGSANYADSVKGRFSISRDNAKKAVYLRMNSLKPEDTAVYYCNADFGTLGRYDYWGQGTQVTVSS
B4: anti-Sap Nanobody707 (VHH)
VHH: QVQLVESGGGLVQAGGSLRLSCAASGSIFRINAMGWYRQASGKQRELVAAITSGGNTNYADSVKGRFTISRDNAKNTVYLQMNSLKPEDTAVYYCNADFGTGGRPYDYWGQGTQVTVSS
B5: anti-Sap Nanobody683 (VHH)
VHH: B4 VHH with A33D, S41P, N56S, N76K, T77M, N96H, G100S, G103W, R104A
B6: anti-Sap Nanobody702 (VHH)
VHH: QVQLVESGGGLVQAGGSLRLSCAASGSIFRVNDMGWYRQAPGKQRELVAIIITGGSTNYADSVKGRFTISRDNAKNTVYLQMNSLRPEDTAVYYCNADFGTGPGRYDYWGQGTQVTVSS
B7: anti-Sap Nanobody684 (VHH)
VHH: B4 VHH with S21F, I31V, A40V, S41T, N56R, A74I, F99L, P105S

Assays:
[1] = target: Sap Domain 2 (D2, residues 296-384), isolated recombinant domain (Bacillus anthracis, UniProt P49051 296-384); assay: dot blot
[2] = target: T1, B. anthracis Surface array protein …; assay: fluorescence microscopy of B. anthracis 34F2 cells with DyLight 650-labelled Nb
[3] = target: Sap Domain 1 (D1, residues 216-295), isolated recombinant domain (Bacillus anthracis, UniProt P49051 216-295); assay: dot blot

Binder	binding result [1]	also measured
B1	no binding	–
B2	–	binding result [2]: binds
B3	no binding	–
B4	no binding	–
B5	no binding	–
B6	no binding	–
B7	–	binding result [3]: binds
